Assay: parallel wall flow chamber, 293T α4β7 transfectants
Settings: glycan lost; control: wild type

B1: integrin β7 subunit: N260A (protein)
parent chain: MVALPMVLVLLLVLSRGESELDAKIPSTGDATEWRNPHLSMLGSCQPAPSCQKCILSHPSCAWCKQLNFTASGEAEARRCARREELLARGCPLEELEEPRGQQEVLQDQPLSQGARGEGATQLAPQRVRVTLRPGEPQQLQVRFLRAEGYPVDLYYLMDLSYSMKDDLERVRQLGHALLVRLQEVTHSVRIGFGSFVDKTVLPFVSTVPSKLRHPCPTRLERCQSPFSFHHVLSLTGDAQAFEREVGRQSVSGNLDSPEGGFDAILQAALCQEQIGWRNVSRLLVFTSDDTFHTAGDGKLGGIFMPSDGHCHLDSNGLYSRSTEFDYPSVGQVAQALSAANIQPIFAVTSAALPVYQELSKLIPKSAVGELSEDSSNVVQLIMDAYNSLSSTVTLEHSSLPPGVHISYESQCEGPEKREGKAEDRGQCNHVRINQTVTFWVSLQATHCLPEPHLLRLRALGFSEELIVELHTLCDCNCSDTQPQAPHCSDGQGHLQCGVCSCAPGRLGRLCECSVAELSSPDLESGCRAPNGTGPLCSGKGHCQCGRCSCSGQSSGHLCECDDASCERHEGILCGGFGRCQCGVCHCHANRTGRACECSGDMDSCISPEGGLCSGHGRCKCNRCQCLDGYYGALCDQCPGCKTPCERHRDCAECGAFRTGPLATNCSTACAHTNVTLALAPILDDGWCKERTLDNQLFFFLVEDDARGTVVLRVRPQEKGADHTQAIVLGCVGGIVAVGLGLVLAYRLSVEIYDRREYSRFEKEQQQLNWKQDSNPLYKSAITTTINPRFQEADSPTL
other: rolling cell adhesion in shear flow: increases
